Reference: US20230265208A1

What was measured:
[1] = biological target: MUC1 on HCT116/MUC1 cells (human) (UniProt P15941); test: flow cytometry on HCT116-MUC1 cells, 5 µg isotype control, 60 min on ice
[2] = biological target: MUC1 on HCT116/MUC1 cells (human) (UniProt P15941); test: flow cytometry titration on HCT116/MUC1 cells; isotype control

Chain of MUC1 on HCT116/MUC1 cells (human) (P15941 24-1255): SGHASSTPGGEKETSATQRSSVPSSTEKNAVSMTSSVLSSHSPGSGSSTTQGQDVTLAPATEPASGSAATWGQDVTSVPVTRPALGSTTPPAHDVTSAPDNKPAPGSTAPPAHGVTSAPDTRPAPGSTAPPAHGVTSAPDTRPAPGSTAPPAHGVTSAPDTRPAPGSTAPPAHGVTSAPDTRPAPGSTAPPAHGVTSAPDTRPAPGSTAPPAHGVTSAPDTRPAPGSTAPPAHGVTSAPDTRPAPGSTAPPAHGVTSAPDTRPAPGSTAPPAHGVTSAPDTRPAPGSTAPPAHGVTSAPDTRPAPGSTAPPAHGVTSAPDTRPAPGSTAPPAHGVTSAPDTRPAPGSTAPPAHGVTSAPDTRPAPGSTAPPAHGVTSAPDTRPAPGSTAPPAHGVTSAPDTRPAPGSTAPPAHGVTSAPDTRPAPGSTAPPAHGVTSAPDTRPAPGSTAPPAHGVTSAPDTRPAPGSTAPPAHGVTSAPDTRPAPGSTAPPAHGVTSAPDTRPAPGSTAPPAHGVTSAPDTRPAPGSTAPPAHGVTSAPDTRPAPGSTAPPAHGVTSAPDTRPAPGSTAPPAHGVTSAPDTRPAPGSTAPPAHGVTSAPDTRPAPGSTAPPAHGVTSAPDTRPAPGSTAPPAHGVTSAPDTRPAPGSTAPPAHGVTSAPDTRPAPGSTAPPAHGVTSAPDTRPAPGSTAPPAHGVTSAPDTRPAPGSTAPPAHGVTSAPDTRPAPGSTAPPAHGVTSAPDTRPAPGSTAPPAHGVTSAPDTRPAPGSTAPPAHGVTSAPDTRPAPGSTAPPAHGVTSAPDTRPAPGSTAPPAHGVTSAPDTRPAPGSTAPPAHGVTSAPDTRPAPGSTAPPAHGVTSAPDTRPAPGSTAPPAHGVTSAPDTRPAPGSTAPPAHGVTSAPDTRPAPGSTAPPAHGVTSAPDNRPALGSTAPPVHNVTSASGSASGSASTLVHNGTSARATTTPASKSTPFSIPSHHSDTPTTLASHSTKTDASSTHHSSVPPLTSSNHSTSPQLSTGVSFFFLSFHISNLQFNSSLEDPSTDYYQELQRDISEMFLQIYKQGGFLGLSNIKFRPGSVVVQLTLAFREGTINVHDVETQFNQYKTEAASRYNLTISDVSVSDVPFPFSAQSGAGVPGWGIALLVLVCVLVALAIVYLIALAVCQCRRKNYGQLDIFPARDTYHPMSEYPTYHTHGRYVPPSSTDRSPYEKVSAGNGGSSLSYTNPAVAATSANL

Row | Substance | number over the gate bar (share of cells in the positive gate) [1] | EC50 [2] [nM]
1 | Control (antibody) | 0.6 | 
2 | Human IgG (antibody) |  | 0.292
